We go through 4 variants from FireProtDB (doi:10.1016/j.jmb.2003.08.024).

Sequences and labels used below:
B1: Ribonuclease, P00648 (parent)
chain: MMKMEGIALKKRLSWISVCLLVLVSAAGMLFSTAAKTETSSHKAHTEAQVINTFDGVADYLQTYHKLPDNYITKSEAQALGWVASKGNLADVAPGKSIGGDIFSNREGKLPGKSGRTWREADINYTSGFRNSDRILYSSDWLIYKTTDHYQTFTKIR

The data set covers variants of B1. The note with it: Bacillus amyloliquefaciens, GdnHCl, Hydrogen exchange, HCl 27.5 mM, reversible: yes, structure 1BNI, whole UniProt chain shown.

As to N105A, for the setting “pH 6.8, 30 °C, Imidazole 50 mM”, the “ddG of mutation (higher = less stable)” value is 1.8 kcal/mol and the denaturant m value was 4.91 kcal/mol/M.

For A90C S127C, the “ddG of mutation (higher = less stable)” value is -1.9 kcal/mol (pH 7.5, 25 °C, Imidazole 50 mM); -1.9 kcal/mol (pH 7.6, 37 °C, Imidazole 50 mM); -1.8 kcal/mol (pH 7.9, 37 °C, Tris 50 mM). Moreover, the denaturant m value runs as follows: (pH 7.5, 25 °C, Imidazole 50 mM) 4.91 kcal/mol/M; (pH 7.6, 37 °C, Imidazole 50 mM) 4.91 kcal/mol/M; (pH 7.9, 37 °C, Tris 50 mM) 4.91 kcal/mol/M.

With S132C H149C, the “ddG of mutation (higher = less stable)” value was -4.3 kcal/mol (pH 7.5, 25 °C, Imidazole 50 mM); -4.6 kcal/mol (pH 7.6, 37 °C, Imidazole 50 mM); -4.5 kcal/mol (pH 7.9, 37 °C, Tris 50 mM). Also, the denaturant m value is, setting by setting: (pH 7.5, 25 °C, Imidazole 50 mM) 4.91 kcal/mol/M; (pH 7.6, 37 °C, Imidazole 50 mM) 4.91 kcal/mol/M; (pH 7.9, 37 °C, Tris 50 mM) 4.91 kcal/mol/M.

As to S138A, under “pH 6.8, 30 °C, Imidazole 50 mM”, the “ddG of mutation (higher = less stable)” value turned out to be 1.8 kcal/mol and the denaturant m value turned out to be 4.91 kcal/mol/M.
